# According to publication doi:10.1101/2025.09.04.674342 (2025):
# B1: BMAL1 TAD switch peptide (residues 619–626, FSDLPWPL) (peptide)
# peptide: FSDLPWPL
# Biological target: CBP KIX domain (residues 586–672) (mouse, UniProt P45481 586-672)
# Assay: NMR
# CBP KIX domain (residues 586–672), sequence (P45481 586-672): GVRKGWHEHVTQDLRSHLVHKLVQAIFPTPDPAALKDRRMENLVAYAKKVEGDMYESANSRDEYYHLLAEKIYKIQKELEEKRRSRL
binder,measurement,value
B1,Kd,> 500 µM
